Measurements taken from article PMC3326303.
Read-outs that look alike come from different tables or passages of the source.

Experiments:
Msi1 RBD2 = Msi1 RBD2 (Mus musculus, UniProt Q61474 109-191); assay: NMR HSQC titration
Msi1 RBD1 [1] = biological target: T1, Msi1 RBD1 (Mus musculus, UniProt Q61474 20-103); assay: NMR HSQC titration
Msi1 RBD1-2 = Msi1 RBD1-2 (Mus musculus, UniProt Q61474 20-191); assay: NMR HSQC titration
Msi1 RBD1 [2] = biological target: T1, Msi1 RBD1; assay: NMR HSQC titration; remark: listed apart in the source
Msi1 RBD1 [3] = biological target: T1, Msi1 RBD1; assay: competition

T1 sequence (Q61474 20-103): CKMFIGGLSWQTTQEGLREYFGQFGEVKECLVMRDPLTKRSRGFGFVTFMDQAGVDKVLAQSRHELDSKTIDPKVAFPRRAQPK
Sequence of Msi1 RBD2 (Q61474 109-191): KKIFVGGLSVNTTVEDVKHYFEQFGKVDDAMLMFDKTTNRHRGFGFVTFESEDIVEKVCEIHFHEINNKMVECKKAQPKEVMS
Sequence of Msi1 RBD1-2 (Q61474 20-191): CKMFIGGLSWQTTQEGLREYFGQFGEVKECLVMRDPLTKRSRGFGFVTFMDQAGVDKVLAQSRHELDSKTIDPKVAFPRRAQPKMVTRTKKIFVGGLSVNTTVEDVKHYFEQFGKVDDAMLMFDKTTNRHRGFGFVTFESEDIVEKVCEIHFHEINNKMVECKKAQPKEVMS

Binder: GGUAGU (ssRNA) [numb6-2]
- binding result (Msi1 RBD2): binds
- binding result (Msi1 RBD1 [1]): binds

Binder: UAGGUA (ssRNA) [numb6-1]
- binding result (Msi1 RBD2): binds

Binder: UAGGUAGUAGUUUUA (ssRNA) [numb15]
- binding result (Msi1 RBD1-2): binds

Binder: GUAGU (ssRNA) [numb5]
- binding result (Msi1 RBD1 [2]): binds

Binder: GUAGUU (ssRNA) [numb6-4]
- binding signal (Msi1 RBD1 [3]): ~1 ratio of complex signal to numb6-2 complex
